Assays:
[1] = target: T1, mouse GPR12 (Mus musculus, UniProt P35412); experiment: cAMP production in CHO-K1-cell stable expression system (CHO-K1-GPR12); format: cell-based; details: CHO-K1-GPR12, peptide 10^-9 M, Forskolin 10^-5 M, 30 minutes
T1 construct: expressed in transfected cells
T1 sequence (P35412 1-334): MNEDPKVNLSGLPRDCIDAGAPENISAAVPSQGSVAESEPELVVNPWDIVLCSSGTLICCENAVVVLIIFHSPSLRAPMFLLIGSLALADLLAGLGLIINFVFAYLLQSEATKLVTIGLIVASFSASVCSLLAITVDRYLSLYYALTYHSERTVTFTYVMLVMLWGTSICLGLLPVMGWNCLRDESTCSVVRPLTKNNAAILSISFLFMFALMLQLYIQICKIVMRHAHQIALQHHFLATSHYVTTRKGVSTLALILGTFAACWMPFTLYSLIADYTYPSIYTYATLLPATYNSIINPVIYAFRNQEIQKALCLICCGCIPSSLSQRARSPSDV
Description: The preparation of cells stably expressing GPR12 was conducted by a conventional method, and hereinafter described briefly. A vector (pcDNA3.1-GPR12) in which a gene (cDNA) encoding mouse GPR12 (SEQ ID NO: 8) was inserted at the downstream of a CMV promoter of pcDNA3.1 (TM) (Invitrogen Corporation) was prepared, 10 μg of the vector was mixed with 250 μL of medium OPTI-MEM™ (Invitrogen Corporation), and 10 μg of Lipofectamine™ 2000 Reagent (Invitrogen Corporation) was mixed with 250 μL of medium OPTI-MEM™, 5 minutes later both mixtures were mixed, and the resultant mixture was left over at room temperature for 20 minutes to prepare a transfection reagent. Chinese hamster ovary cells (CHO-K1) [ATCC Cat. No. CCl-61] plated onto a 6-well plate at 1.5×10^6 cells/well on the previous day in advance were washed with medium OPTI-MEM™ once, and the above-mentioned transfection reagent (vector and Lipofectamine™ 2000 Reagent) was added to the cells dropwise to perform transfection. The resultant transfected cells were incubated at 37° C. for 5 hours in a CO2 incubator, and then the medium was replaced by Ham's F12 medium. Further, the next day the medium was exchanged with Ham's F12 medium containing 100 μg/mL of Geneticin® (Invitrogen Corporation), and furthermore the next day the medium was exchanged with the same medium containing 200 μg/mL of Geneticin®, and the following day the medium was exchanged with the same medium containing 700 μg/mL of Geneticin®, and after that, culturing was continued under the conditions of 37° C. and 5% CO2 in a medium containing Geneticin® at the same concentration. […]
The measured intracellular cAMP level was evaluated in terms of a ratio (Fold) of each intracellular cAMP level with respect to the mean of the intracellular cAMP level in the (−) group that is set as unity, in which CHO-K1-GPR12 cells were cultured in the medium containing no peptide.

[2] = target: T2, mGPR12 (Mus musculus, UniProt P35412); experiment: CREB phosphorylation in CHO-K1-cell stable expression system (western blotting); format: cell-based; set-up: expressed in transfected cells; details: CHO-K1-mGPR12 cells
T2 sequence (P35412 1-334): T1 sequence (P35412 1-334)
Description: Using Nesfatin-1M30 (Mid-segment) as a test substance, the method for bringing the test substance into contact with cells was conducted as follows. The confluent CHO-K1 cells and CHO-K1-mGPR12 cells were recovered in 10-cm dishes, plated onto 10-cm dishes by dividing the cell colony in four quarters, and cultured for 2 days in Ham's F12 medium (as for CHO-K1-mGPR12, 700 μg/mL of Geneticin® was contained). After removing the medium, the resultant cultured cells were washed once with the medium containing no Geneticin®, and then Ham's F12 medium containing 10^−9 M of Nesfatin-1M30 (Mid-segment) peptide was added to the cells. […] SDS-gel electrophoresis was conducted by using the protein extracts from each cells; and then the protein was transcribed into Amersham hybond-P[…] (GE Healthcare); and using anti-phosphorylation CREB antibody (Cell Signaling Technology, Inc., Catalog No. #9191) for detecting the phosphorylated CREB, the phosphorylated CREB was detected with an ECL plus western blotting detection reagents (GE Healthcare) kit, in accordance with the attached protocol. […]
Further, the concentration dependence was examined by using Nesfatin-1M30 (Mid-segment: SEQ ID NO: 11). […] Subsequently, cellular proteins were extracted, and the phosphorylated CREB (p-CREB) was detected by a western blotting method.

Nesfatin-1M30: mid-segment of Nesfatin-1, human-derived Nesfatin-1M30, SEQ ID NO: 11 (PDTGLYYDEYLKQVIDVLETDKHFREKLQK; listed as Homo sapiens)
intracellular cAMP level compared with the group (-) cultured in medium containing no peptide [1]: about 5 fold
phosphorylation of CREB (p-CREB band), time course ([2]; 10^-9 M, 15 minutes or later after contact): phosphorylation of CREB was induced
phosphorylation of CREB, concentration dependence ([2]; 10^-12 M to 10^-9 M, 15 minutes): enhanced depending on the M30 peptide concentration

Source: patent US8221990B2, “Screening GPR12 receptor for substances having Nesfatin-1-like action, or which regulate Nesfatin-1 action” (Teijin Pharma Limited, priority 2007, dated 2012)
